Reference: PMC6662825, “The MTR4 helicase recruits nuclear adaptors of the human RNA exosome using distinct arch-interacting motifs” (Nature Communications, 2019)
One block for each binder: values may come before it.

B1: Trx-NVL^1–266 (domain or fragment, human, UniProt O15381 1-266, looked up)
chain: MKPRPAGFVDNKLKQRVIQYLTSNKCGKYVDIGVLASDLQRVYSIDYGRRKRNAFRIQVEKVFSIISSEKELKNLTELEDEHLAKRARQGEEDNEYTESYSDDDSSMEDYPDPQSANHMNSSLLSLYRKGNPDSVSNTPEMEQRETTSSTPRISSKTGSIPLKTPAKDSEGGWFIDKTPSVKKDSFFLDLSCEKSNPKKPITEIQDSKDSSLLESDMKRKGKLKNKGSKRKKEDLQEVDGEIEAVLQKKAKARGLEFQISNVKFED
notes: also called N-terminal region of human NVL tagged with thioredoxin; source: E. coli BL21 star (DE3), purified (Ni-NTA, SEC); not shown: 6xHis-Trx, N-terminal, kept

Key:
Details in all cases: both partners purified
[1] = target: T1, GST-MTR4-∆N (human, UniProt P42285 75-1042); assay: pull-down; GST-tagged MTR4 constructs as bait, Trx-NVL constructs as prey, glutathione sepharose; 10 μM GST-MTR4∆N with 20 μM Trx-NVL constructs; 50 mM Hepes pH 7.5, 150 mM NaCl, 5% glycerol, 0.05% NP40, 1 mM DTT, 30 min at 4 °C; SDS-PAGE, Coomassie
T1 construct: Tag is cleavable with 3C protease; kept for the GST pull-downs; also called GST-tagged MTR4∆N; source: E. coli BL21 star (DE3), purified (Ni-NTA, heparin, SEC); not shown: 6xHis-GST, N-terminal, kept
T1 sequence (looked up): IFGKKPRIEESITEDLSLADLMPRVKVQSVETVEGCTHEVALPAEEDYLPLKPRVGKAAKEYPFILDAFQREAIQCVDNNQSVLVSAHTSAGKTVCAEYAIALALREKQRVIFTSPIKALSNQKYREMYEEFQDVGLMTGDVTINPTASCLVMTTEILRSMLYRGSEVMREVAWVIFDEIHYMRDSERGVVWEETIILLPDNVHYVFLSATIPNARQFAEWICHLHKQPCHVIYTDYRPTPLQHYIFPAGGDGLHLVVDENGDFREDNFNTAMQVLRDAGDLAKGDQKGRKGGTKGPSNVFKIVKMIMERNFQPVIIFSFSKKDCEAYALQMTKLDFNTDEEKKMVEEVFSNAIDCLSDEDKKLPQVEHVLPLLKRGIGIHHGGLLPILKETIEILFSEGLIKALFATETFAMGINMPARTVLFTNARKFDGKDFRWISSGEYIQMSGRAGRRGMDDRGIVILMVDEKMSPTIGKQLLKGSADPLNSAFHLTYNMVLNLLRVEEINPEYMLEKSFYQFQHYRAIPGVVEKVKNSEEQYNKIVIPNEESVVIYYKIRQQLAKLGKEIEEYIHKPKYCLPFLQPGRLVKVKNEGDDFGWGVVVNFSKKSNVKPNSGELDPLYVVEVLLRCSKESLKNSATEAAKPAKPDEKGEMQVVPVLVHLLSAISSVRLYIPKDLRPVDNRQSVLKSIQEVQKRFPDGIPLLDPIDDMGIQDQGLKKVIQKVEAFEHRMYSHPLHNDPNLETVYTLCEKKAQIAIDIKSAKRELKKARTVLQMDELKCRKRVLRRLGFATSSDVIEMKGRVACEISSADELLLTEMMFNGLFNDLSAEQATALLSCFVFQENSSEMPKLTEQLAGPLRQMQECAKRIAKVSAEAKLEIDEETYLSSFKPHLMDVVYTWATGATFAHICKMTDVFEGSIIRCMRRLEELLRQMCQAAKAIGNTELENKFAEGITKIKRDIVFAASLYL

[2] = target: B1; assay: as above
[3] = target: T2, MTR4-KOW (human, UniProt P42285 645-787); assay: MST; 1 μM MBP-ZCCHC8^91–211-(GS)3-eYFP with a 1:1 dilution series of unlabeled MTR4-KOW; 50 mM Hepes/NaOH pH 7.5, 150 mM NaCl, 5% glycerol, 0.5 mM TCEP; MST power 70%, LED power 15%; triplicates
T2 construct: human MTR4 KOW domain, residues 645–787; Named without GST in MST, NMR and ITC; the methods say the His-GST tag was cleaved with 3C protease 'when appropriate', so it was probably removed; Isotope-labelled for NMR; also called unlabeled MTR4 KOW; 15N-labelled MTR4-KOW; source: E. coli BL21 star (DE3), purified (Ni-NTA, heparin, SEC); minimal medium with 15N/13C for NMR
T2 sequence (looked up): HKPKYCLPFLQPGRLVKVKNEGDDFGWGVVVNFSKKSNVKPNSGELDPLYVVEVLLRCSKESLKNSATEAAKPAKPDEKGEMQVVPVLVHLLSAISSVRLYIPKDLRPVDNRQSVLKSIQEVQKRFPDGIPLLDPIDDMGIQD

[4] = target: T3, GST-MTR4∆N R743E (human, UniProt P42285 75-1042, R743E); assay: pull-down; GST-tagged MTR4 constructs as bait, MBP-ZCCHC8 constructs as prey, glutathione sepharose; 2 μM GST-MTR4∆N with 8 μM MBP-ZCCHC8 constructs; 50 mM Hepes pH 7.5, 150 mM NaCl, 5% glycerol, 0.05% NP40, 1 mM DTT, 30 min at 4 °C; SDS-PAGE, Coomassie
T3 construct: also called R743E mutant; source: E. coli BL21 star (DE3), purified (Ni-NTA, heparin, SEC); not shown: 6xHis-GST, N-terminal, kept
T3 sequence (looked up): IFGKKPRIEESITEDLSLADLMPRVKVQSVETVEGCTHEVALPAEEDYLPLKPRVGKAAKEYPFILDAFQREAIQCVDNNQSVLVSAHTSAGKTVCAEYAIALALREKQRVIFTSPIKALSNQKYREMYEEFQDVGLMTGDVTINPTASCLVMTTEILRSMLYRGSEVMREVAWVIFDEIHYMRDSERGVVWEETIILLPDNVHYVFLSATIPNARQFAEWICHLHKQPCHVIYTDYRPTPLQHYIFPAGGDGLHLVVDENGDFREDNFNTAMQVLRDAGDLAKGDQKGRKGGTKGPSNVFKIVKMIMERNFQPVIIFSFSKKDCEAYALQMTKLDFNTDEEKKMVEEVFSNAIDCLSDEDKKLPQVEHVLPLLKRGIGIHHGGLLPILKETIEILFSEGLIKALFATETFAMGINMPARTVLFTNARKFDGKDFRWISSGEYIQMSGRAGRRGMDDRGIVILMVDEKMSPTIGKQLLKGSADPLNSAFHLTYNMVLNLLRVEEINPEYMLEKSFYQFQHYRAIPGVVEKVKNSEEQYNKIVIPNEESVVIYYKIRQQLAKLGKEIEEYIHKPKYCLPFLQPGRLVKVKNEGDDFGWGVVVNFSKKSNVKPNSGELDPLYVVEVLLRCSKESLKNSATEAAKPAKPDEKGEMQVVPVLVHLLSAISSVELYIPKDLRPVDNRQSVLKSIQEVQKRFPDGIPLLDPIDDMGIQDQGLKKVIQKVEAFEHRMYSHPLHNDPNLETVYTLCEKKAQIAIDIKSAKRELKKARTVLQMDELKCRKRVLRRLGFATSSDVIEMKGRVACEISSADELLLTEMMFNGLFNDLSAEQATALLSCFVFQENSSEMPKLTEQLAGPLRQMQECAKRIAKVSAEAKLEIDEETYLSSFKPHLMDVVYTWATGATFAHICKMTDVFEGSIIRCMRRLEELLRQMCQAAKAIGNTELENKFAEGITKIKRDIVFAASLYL

[5] = target: T1, GST-MTR4-∆N; assay: as above

Binder: B1
binding result [1]: binds

B3: Trx-NVL^167–216 F186A D189R (domain or fragment, human, UniProt O15381 167-216, looked up)
chain: KDSEGGWFIDKTPSVKKDSAFLRLSCEKSNPKKPITEIQDSKDSSLLESD
notes: also called F186A and D189R mutations in the Nop53-like stretch; source: E. coli BL21 star (DE3), purified (Ni-NTA, SEC); not shown: 6xHis-Trx, N-terminal, kept
binding result [1]: binds

B4: GST-MTR4-KOW (domain or fragment, human, UniProt P42285 645-787, looked up)
chain: HKPKYCLPFLQPGRLVKVKNEGDDFGWGVVVNFSKKSNVKPNSGELDPLYVVEVLLRCSKESLKNSATEAAKPAKPDEKGEMQVVPVLVHLLSAISSVRLYIPKDLRPVDNRQSVLKSIQEVQKRFPDGIPLLDPIDDMGIQD
notes: human MTR4 KOW domain, residues 645–787; also called GST-tagged MTR4 KOW; source: E. coli BL21 star (DE3), purified (Ni-NTA, heparin, SEC); not shown: 6xHis-GST, N-terminal, kept
binding result [2]: binds

B5: MBP-ZCCHC8^91–211-(GS)3-eYFP (domain or fragment, human, UniProt Q6NZY4 91-211, looked up)
chain: DGPILQILFMNNAISKQYHQEIEEFVSNLVKRFEEQQKNDVEKTSFNLLPQPSSIVLEEDHKVEESCAIKNNKEAFSVVGSVLYFTNFCLDKLGQPLLNENPQLSEGWEIPKYHQVFSHIV
notes: also called ZCCHC8-YFP fusion protein; source: E. coli BL21 star (DE3), purified (Ni-NTA, SEC); not shown: 6xHis-MBP, N-terminal, kept; (GS)3-eYFP, C-terminal, kept
Kd [3]: ~300 nM

B6: MBP-ZCCHC8^91–211 (domain or fragment, human, UniProt Q6NZY4 91-211, looked up)
chain: DGPILQILFMNNAISKQYHQEIEEFVSNLVKRFEEQQKNDVEKTSFNLLPQPSSIVLEEDHKVEESCAIKNNKEAFSVVGSVLYFTNFCLDKLGQPLLNENPQLSEGWEIPKYHQVFSHIV
notes: source: E. coli BL21 star (DE3), purified (Ni-NTA, SEC); not shown: 6xHis-MBP, N-terminal, kept
binding result [4]: binds

Second part, the binder after the results:

binding result [1]: binds
B2: NVL^167–216 D176A (domain or fragment, human, UniProt O15381 167-216, looked up)
chain: KDSEGGWFIAKTPSVKKDSFFLDLSCEKSNPKKPITEIQDSKDSSLLESD
notes: The methods give Trx-NVL constructs for the NVL pull-downs, so the Trx tag was probably kept; also called D176A mutant; source: E. coli BL21 star (DE3), purified (Ni-NTA, SEC)

binding result [5]: binds
B7: MBP-ZCCHC8^91–211 W198A/K202E (domain or fragment, human, UniProt Q6NZY4 91-211, looked up)
chain: DGPILQILFMNNAISKQYHQEIEEFVSNLVKRFEEQQKNDVEKTSFNLLPQPSSIVLEEDHKVEESCAIKNNKEAFSVVGSVLYFTNFCLDKLGQPLLNENPQLSEGAEIPEYHQVFSHIV
notes: also called W198A/K202E mutant; source: E. coli BL21 star (DE3), purified (Ni-NTA, SEC); not shown: 6xHis-MBP, N-terminal, kept

binding result [5]: binds
B8: MBP-ZCCHC8^91–211 F178A/D181R (domain or fragment, human, UniProt Q6NZY4 91-211, looked up)
chain: DGPILQILFMNNAISKQYHQEIEEFVSNLVKRFEEQQKNDVEKTSFNLLPQPSSIVLEEDHKVEESCAIKNNKEAFSVVGSVLYFTNACLRKLGQPLLNENPQLSEGWEIPKYHQVFSHIV
notes: also called F178A/D181R mutant; source: E. coli BL21 star (DE3), purified (Ni-NTA, SEC); not shown: 6xHis-MBP, N-terminal, kept
